Test results: publication PMC12914668

Legend:
Test in all cases: fluorescence polarisation; fluorescence anisotropy; 5 nM OG488-labelled histone monomer held constant, ligase complex titrated; 20 mM Tris-HCl pH 7.5, 10 mM NaCl, 5% glycerol, 1 mM DTT; 25 °C, 1 to 2.5 h; BSA-coated black 96-well plates
[1] = target: Xenopus laevis histone H2A K119C, Oregon Green 488 labelled (Xenopus laevis)
[2] = target: Xenopus laevis histone H3, Oregon Green 488 labelled at C110 (Xenopus laevis) (UniProt P84233)
[3] = target: Xenopus laevis histone H4 V22C, Oregon Green 488 labelled (Xenopus laevis) (UniProt P62799)

Substance | Kd [1] | Kd [2] | Kd [3]
ASB9-ELOB/C-CUL5-RBX2 (ASB9-CRL5), not neddylated (from UniProt Q96DX5 1-294; Q15370 1-118; Q15369 1-112; Q93034 1-780; Q9UBF6 1-113) (complex) | 341 nM | 187 nM | 79.7 nM
NEDD8-ASB9-ELOB/C-CUL5-RBX2 (neddylated ASB9-CRL5) (from UniProt Q96DX5 1-294; Q15370 1-118; Q15369 1-112; Q93034 1-780; Q9UBF6 1-113; Q15843 1-76) (complex) |  | 78.2 nM | 48.4 nM
